Source: PMC12797002, “Hydrophobic residues in the α‐synuclein NAC domain drive seed‐competent fibril formation and are targeted by peptide inhibitors” (The Febs Journal, 2025)
“Also recorded” adds a separate entry of the source.

Legend:
[1] = UV-Vis spectrophotometric analysis of soluble and insoluble fractions; assay type: physicochemical; conditions: 100 μM peptide, 48 h incubation without ThT, 65 000 g 1 h, 1× PBS pH 7.2, spectra 400–600 nm; means of 3 replicates
Procedure: To fractionate aggregated samples (recombinant αSyn or NAC peptides), 20% of the aggregation mixture was set aside as the ‘total fraction’. The remaining sample was centrifuged at room temperature at 65 000 g for 1 h. The supernatant was collected as the ‘soluble fraction’ and transferred to a fresh tube. The pellet was resuspended in 80 μL of 1× PBS (pH 7.2) and centrifuged at 65 000 g for 1 h. After removing the supernatant, the pellet was resuspended in 8 μL of 1× PBS (pH 7.2), yielding a 10× concentrated ‘insoluble fraction’.
NAC peptides (100 μM) were incubated without ThT for 48 h to allow aggregation. The resulting mixtures were centrifuged at 65 000 g for 1 h to separate the soluble and insoluble fractions, as outlined above. Insoluble fractions were resuspended in an equal volume of 1× PBS (pH 7.2) as the soluble fractions. UV–Vis absorption spectra were recorded from 400 to 600 nm using an EnSpire Multimode Plate Reader (Revvity) with a resolution of 10 nm.

[2] = ANS assay of NAC peptide aggregation at different pH; assay type: physicochemical; conditions: ANS fluorescence, 100 μM peptide; for aggregation on altering pH: acidic, neutral (pH 7.2) and basic (pH 8.0) PBS, 37 °C; for lag time at acidic pH compared with neutral pH / lag time at basic pH compared with neutral pH: 40 μM ANS, 1× PBS, 1000 rpm, n = 3; for lag time at acidic pH compared with neutral pH: acidic (pH 4.5 in legend, pH 4.2 in method) vs pH 7.2, 37 °C; for lag time at basic pH compared with neutral pH: pH 8.0 vs pH 7.2, 37 °C
Procedure: A 40‐μL reaction mixture was prepared on ice containing 100 μM NAC peptides and 40 μM 8‐anilino‐1‐naphthalenesulfonic acid (ANS; Sigma‐Aldrich, Cat. # A1028‐5G) in 1× PBS at pH 4.2, 7.2, or 8.0. The aggregation kinetics were monitored on an EnSpire Multimode Plate Reader (Revvity) at 37 °C with a constant agitation of 1000 rpm. ANS fluorescence readings (Ex: 390 nm, Em: 475 nm) were recorded every 5–10 min for 48–72 h. The lag time of aggregation was determined by fitting a Boltzmann sigmoidal equation, as described in the previous section.

[3] = ThT aggregation kinetics and AFM/TEM imaging of NAC peptides; assay type: physicochemical; conditions: for aggregation (ThT kinetics) / lag time of aggregation compared with NAC35: 100 μM peptide, n = 3; for aggregation (ThT kinetics): 15 μM ThT, 1× PBS pH 7.2, 37 °C, 1000 rpm, 48–72 h, ThT fluorescence; for aggregate morphology (AFM and TEM): after 48 h of aggregation; for Key observations: fibril formation and stability / Key observations: nucleation: summary table; for lag time of aggregation compared with NAC35: ThT readings 0–10 h, Boltzmann sigmoidal fit, PBS pH 7.2, 37 °C
Procedure: NAC peptides stored at −80 °C were thawed on ice and centrifuged at 12 100 g for 45 s. A reaction mixture (40 μL) was prepared on ice containing 100 μM NAC peptide, either alone or in combination with inhibitor peptides at a 1 : 2 molar ratio, along with 15 μM ThT (Sigma‐Aldrich, Burlington, MA, USA; Cat. # T3516‐5G) in 1× PBS (pH 7.2). This mixture was then dispensed into a clear‐bottom, black 384‐well plate (Revvity, Waltham, MA, USA), and the plate was sealed with a TopSealA‐PLUS (Revvity) to prevent evaporation.
The aggregation kinetics was monitored on an EnSpire Multimode Plate Reader (Revvity) at 37 °C with a constant agitation of 1000 rpm. To prevent condensation in the assay plate, the upper heater temperature in the plate reader was set to 2 °C higher than the lower heater temperature. ThT (Ex: 460–490 nm, Em: 500–550 nm) fluorescence readings were recorded every 5–10 min for 48–72 h. The aggregation lag time was determined by fitting a Boltzmann sigmoidal equation to the fluorescence data in OriginPro 2024 (OriginLab Corporation, Northampton, MA, USA).
NAC peptide aggregates, collected after 48 h of the aggregation assay, were dropped onto a freshly cleaved 10 mm AFM mica disc (Ted Pella, Inc., Redding, CA, USA) and air‐dried for 10 min at room temperature. The mica discs were washed five times with deionized water and then dried for 10–15 min at room temperature. AFM imaging was performed as described, using the […] AIR probe (tip radius: 2 nm, spring constant: 0.4 N/m).
Samples were dropped on glow‐discharged carbon‐coated copper grids and negatively stained with 2% uranyl acetate. Electron microscopy was performed on a Tecnai G2 F20 microscope (FEI Technologies, Hillsboro, OR, USA) with an Eagle 4K CCD camera (FEI Technologies) or a CM100 TWIN Transmission Electron Microscope (Philips, Amsterdam, Netherlands) equipped with a side‐mounted Veleta Camera (Olympus, Tokyo, Japan) and processed in the iTEM software suite (Olympus). After bringing the images to 2048 × 2048 pixels, the pixel size at the specimen level was 1.14 nm. Approximately 20 micrographs of each specimen were recorded and evaluated.

monomeric αSyn = biological target: T1, monomeric αSyn (Homo sapiens, UniProt P37840, A53T); assay: In vitro seeding assay with preformed fibrils (ThT, dot blot, Coomassie gel); assay type: biochemical; conditions: for seeding of αSyn aggregation (effect on lag time) in words: 100 μM αSyn + 25 μM preformed fibrils, ThT; for αSyn dimerization (dimer-to-monomer band ratio, Coomassie gel): insoluble fractions of seeded αSyn, n = 2; for Key observations: seeding of αSyn aggregation: summary table
T1 construct: made in house
Procedure: For the in vitro seeding assay, αSyn (100 μM), NAC35 (100 μM), NAC16 (200 μM), and NAC11 (200 μM) peptides were aggregated without ThT for 72–96 h. Fibril formation was confirmed by mixing 10 μL of the aggregated sample with 15 μM ThT and measuring fluorescence using an EnSpire Multimode Plate Reader (Revvity). Aggregates were then centrifuged to separate insoluble fractions as described above.
αSyn (100 μM) was incubated with 25 μM insoluble fractions (preformed fibrils) of αSyn, NAC35, NAC16, and NAC11 in a 100–150 μL volume per well of a 96‐well ViewPlate in the presence of 50 μM ThT. The aggregation kinetics were monitored on an EnSpire Multimode Plate Reader (Revvity) at 37 °C with a constant agitation of 1000 rpm. ThT fluorescence was recorded every 5–10 min for over 60–65 h. After aggregation, the contents of each well were collected, and insoluble fractions were isolated by centrifugation. These fractions were subsequently analyzed using dot blot analysis and Coomassie gel staining.
The samples were mixed with 2× Laemmli buffer [62.5 mM Tris/HCl (pH 6.8), 25% (w/v) glycerol, 2% SDS, and 0.01% Bromophenol Blue, supplemented with 5% (v/v) 2‐mercaptoethanol] and boiled at 95 °C for 5 min. The samples were then subjected to electrophoresis using Mini‐PROTEAN TGX 4–20% Precast gels (Bio‐Rad, Hercules, CA, USA, Cat. # 4561095) in Tris/glycine/SDS running buffer (Bio‐Rad). Gels were fixed in 50% methanol (v/v) and 10% acetic acid (v/v) for 1 h, stained with Coomassie Brilliant Blue R‐250 Staining Solution (Bio‐Rad, Cat. # 1610436EDU) for 12 h at 4 °C with gentle agitation, and destained in deionized water. Gel images were acquired using a ChemiDoc MP imaging system (Bio‐Rad), and densitometry was performed using the IMAGEJ software (RRID: SCR_003070; Bethesda, MD, USA).
Five μL of the sample (2.5 μL first, allowed to dry completely, then another 2.5 μL) was spotted onto a nitrocellulose membrane (Bio‐Rad, Cat. # 1620147), pre‐divided into uniform circular grids, and allowed to dry for 10 min at room temperature. The membrane was blocked for 1 h with 5% bovine serum albumin (BSA) in 1× Tris‐buffered saline with 0.05% Tween® 20 (TBST), followed by 3× washes with TBST. The membrane was then incubated for 1 h with anti‐α‐Synuclein (D37A6) rabbit monoclonal antibody (Cell Signaling Technology, Inc., Danvers, MA, USA, Cat. # 4179, RRID: AB_1904156), which recognizes an epitope surrounding Glu105 in the C‐terminal region of αSyn, and was used at a 1 : 2000 dilution in 5% BSA/TBST. After 3× washes with TBST, the blot was incubated with Alexa Fluor™ 647 Goat anti‐Rabbit IgG (Thermo Fisher Scientific; Cat. # A‐21245) at a 1 : 5000 dilution for 1 h. The blot was imaged using the ChemiDoc MP imaging system (Bio‐Rad), and densitometry was performed using IMAGEJ.

Substance: NAC12: truncated NAC peptide corresponding to αSyn 71–82 (VTGVTAVAQKTV)
- solubility: UV–Vis absorption of soluble and insoluble fractions [1]: indistinguishable spectra for soluble and insoluble fractions; also recorded: remained fully soluble
- aggregation on altering pH [2]: did not induce
- aggregation (ThT kinetics) [3]: did not aggregate
- aggregate morphology (AFM and TEM) [3]: no fibrillar or aggregated structures were formed
- Key observations: fibril formation and stability [3]: No nucleation or fibril formation observed
- Key observations: nucleation [3]: No nucleation or fibril formation observed

Substance: NAC16: truncated NAC peptide corresponding to αSyn 63–78 (VTNVGGAVVTGVTAVA)
- solubility: UV–Vis absorption of soluble and insoluble fractions [1]: clear increase in absorbance in the insoluble fraction
- lag time at acidic pH compared with neutral pH [2]: longer lag times
- lag time at basic pH compared with neutral pH [2]: longer lag times
- aggregation (ThT kinetics) [3]: readily underwent aggregation
- lag time of aggregation compared with NAC35 [3]: shorter lag time of aggregation than NAC35
- aggregate morphology (AFM and TEM) [3]: elongated fibrils with clumped tangles
- Key observations: fibril formation and stability [3]: moderately stable fibrils
- Key observations: nucleation [3]: Rapid nucleation
- seeding of αSyn aggregation (effect on lag time) in words (monomeric αSyn): fail to seed αSyn aggregation
- αSyn dimerization (dimer-to-monomer band ratio, Coomassie gel) (monomeric αSyn): did not promote dimerization or aggregation
- Key observations: seeding of αSyn aggregation (monomeric αSyn): lacks seeding ability

Substance: NAC11: truncated NAC peptide corresponding to αSyn 68–78, the minimal toxic core (GAVVTGVTAVA)
- solubility: UV–Vis absorption of soluble and insoluble fractions [1]: clear increase in absorbance in the insoluble fraction
- lag time at acidic pH compared with neutral pH [2]: longer lag times
- lag time at basic pH compared with neutral pH [2]: longer lag times
- aggregation (ThT kinetics) [3]: readily underwent aggregation
- lag time of aggregation compared with NAC35 [3]: shorter lag time of aggregation than NAC35
- aggregate morphology (AFM and TEM) [3]: dense, sticky bundles lacking elongated tangles
- Key observations: fibril formation and stability [3]: forms unstable fibrils prone to precipitation
- Key observations: nucleation [3]: Rapid nucleation
- seeding of αSyn aggregation (effect on lag time) in words (monomeric αSyn): fail to seed αSyn aggregation
- αSyn dimerization (dimer-to-monomer band ratio, Coomassie gel) (monomeric αSyn): did not promote dimerization or aggregation
- Key observations: seeding of αSyn aggregation (monomeric αSyn): lacks seeding ability

Substance: NAC35: peptide of the entire NAC domain, corresponding to αSyn 61–95
- solubility: UV–Vis absorption of soluble and insoluble fractions [1]: clear increase in absorbance in the insoluble fraction
- lag time at acidic pH compared with neutral pH [2]: shortened the lag time
- lag time at basic pH compared with neutral pH [2]: increased it
- aggregation (ThT kinetics) [3]: readily underwent aggregation
- aggregate morphology (AFM and TEM) [3]: elongated fibrils with clumped tangles
- Key observations: fibril formation and stability [3]: forms robust fibrils with enhanced stability
- Key observations: nucleation [3]: Slow nucleation
- seeding of αSyn aggregation (effect on lag time) in words (monomeric αSyn): significantly shortened the lag time
- αSyn dimerization (dimer-to-monomer band ratio, Coomassie gel) (monomeric αSyn): significantly increased αSyn dimerization
- Key observations: seeding of αSyn aggregation (monomeric αSyn): effective seeding of αSyn aggregation
- insoluble fraction of seeded αSyn (dot blot) (monomeric αSyn; αSyn aggregated for 72 h with preformed fibrils, n = 3): increased insoluble fractions

Substance: NAC17: truncated NAC peptide corresponding to αSyn 79–95 (QKTVEGAGSIAAATGFV)
- solubility: UV–Vis absorption of soluble and insoluble fractions [1]: indistinguishable spectra for soluble and insoluble fractions; also recorded: remained fully soluble
- aggregation on altering pH [2]: did not induce
- aggregation (ThT kinetics) [3]: did not aggregate
- aggregate morphology (AFM and TEM) [3]: no fibrillar or aggregated structures were formed
- Key observations: fibril formation and stability [3]: No nucleation or fibril formation observed.
- Key observations: nucleation [3]: No nucleation or fibril formation observed.

Substance: NAC8: shortest NAC peptide, eight residues, corresponding to αSyn 72–79 (TGVTAVAQ)
- solubility: UV–Vis absorption of soluble and insoluble fractions [1]: indistinguishable spectra for soluble and insoluble fractions; also recorded: remained fully soluble
- aggregation on altering pH [2]: did not induce
- aggregation (ThT kinetics) [3]: did not aggregate
- aggregate morphology (AFM and TEM) [3]: no fibrillar or aggregated structures were formed
- Key observations: fibril formation and stability [3]: No nucleation or fibril formation observed
- Key observations: nucleation [3]: No nucleation or fibril formation observed
